Columns and labels:
[1] = tested on: GATA-1 transcription (human GATA-1 promoter); assay: GATA-1 reporter gene assay in HEL cells; type: cell-based; conditions: 10 μg expression plasmid
Description: Using 15 μg of pGL3-HSI-IE Pro and 10 μg of a plasmid for the expression of various HDACs or HDAC variants, 8.75×10^6 HEL cells (accession number JCRB0062, JCRB) were transformed by the electroporation method (BIO-RAD, Gene Pulser II, voltage 1750 V, charge 10 μF, 365 μL). After transformation, 2 mL of 10% FBS RPMI 1640 was added, and this mixture was dispensed to a 96-well white plate in a ratio of 50 μL/well. After cultivation under conditions of 37° C., 5% CO2 and saturated humidity for 3 hours, 10% FBS RPMI 1640 medium was added at 50 μL/well. After cultivation under conditions of 37° C., 5% CO2 and saturated humidity for 8 hours, luciferase activity in cells were measured according to the manual of the Bright-Glo Luciferase Assay System, and GATA-1 transcriptional activity was measured using a multi-label counter.
A mixture of four kinds of HDAC4-targeted siRNA, i.e., siGENE HDAC4 SMARTpool (manufactured by Dharmacon Inc., marketed by B-Bridge international Inc., code number M-003497-00-05), or Non-specific Control Duplex IX (47% GC content) (manufactured by Dharmacon Inc., marketed by B-Bride international Inc., code number D-001206-09-20), and pGL3 IL2 Pro43 were transfected to Jurkat cells by the electroporation method using the same conditions as those mentioned above, and IL-2 transcriptional activity was measured. […]

[2] = molecular target: T1, N-CoR(RD3) (Homo sapiens, UniProt O75376); assay: Two-hybrid detection system for interaction of HDAC4 and N-CoR; type: cell-based; conditions: Jurkat cells; 22 hours after transfection
T1 construct: expressed in transfected cells; host or cells: Jurkat cells (ATCC, TIB-152)
T1 sequence (O75376 1005-1498): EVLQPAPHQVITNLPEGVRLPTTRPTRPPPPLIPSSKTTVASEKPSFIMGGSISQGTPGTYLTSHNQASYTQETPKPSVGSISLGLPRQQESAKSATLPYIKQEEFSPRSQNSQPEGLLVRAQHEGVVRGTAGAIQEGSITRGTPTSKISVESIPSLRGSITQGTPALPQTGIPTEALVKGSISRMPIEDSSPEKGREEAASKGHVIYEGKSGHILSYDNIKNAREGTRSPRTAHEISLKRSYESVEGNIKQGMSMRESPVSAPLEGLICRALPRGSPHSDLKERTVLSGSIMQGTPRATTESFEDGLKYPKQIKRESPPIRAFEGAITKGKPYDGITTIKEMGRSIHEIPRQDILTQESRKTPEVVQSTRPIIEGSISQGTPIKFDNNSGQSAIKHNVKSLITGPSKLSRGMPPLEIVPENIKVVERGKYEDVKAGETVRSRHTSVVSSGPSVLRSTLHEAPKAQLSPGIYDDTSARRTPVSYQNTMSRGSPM
Description: First, from the literature information in Mol. Cell, 2002, Vol. 9, p.45-57, the site corresponding to the RD3 sequence of human N-COR was determined (1005-1498a.a.). The human N-COR CDS base sequence was obtained from GenBank accession number AF044209, and human N-CoR(RD3) cDNA was amplified from human-lung-derived cDNA by the PCR method. The primers used were RD3-Bam-FW (SEQ ID NO:82) and RD3-Not-RV (SEQ ID NO:83) below. For the base sequence of human N-CoR(RD3), see SEQ ID NO:21; for the amino acid sequence encoded by the base sequence of human N-CoR (RD3), see SEQ ID NO:22. […]
Subsequently, 10 μg of pG5-Luc (Promega), 3 μg of BND and 3 μg of pACT, or 10 μg of pG5-Luc, 3 μg of pBND-N-CoR (RD3) and 3 μg of pACT-HDAC4, or 10 μg of pG5-Luc, 3 μg of pBND-N-CoR(RD3) and 3 μg of pACT-HDAC4 (H863L), were mixed respectively, and each mixture was transfected to 1×10^7 Jurkat cells (ATCC, TIB-152) by the electroporation method (BIO-RAD, Gene Pulser II, voltage 300 V, charge 975 μF, 400 μL). Twenty-two hours after transfection, luciferase activity in the cells was measured according to the manual of the Bright-Glo Luciferase Assay System (Promega) using a multi-label counter (1420 MULTILABEL COUNTER ARVO SX, WALLAC).

[3] = tested on: histone; assay: HDAC activity with [3H]-labeled acetylated histone as a substrate; type: biochemical, human; conditions: expressed in 293T cells, crudely purified; compared to wild-type HDAC4
Description: 7 μg of a plasmid for the expression of wild-type HDAC4 and HDAC4 dominant negative variants (H802K, H803L, H863L) was transfected to 293T cells by the calcium phosphate method; 48 hours later, whole cell lysate (cells were disrupted in 25 mM Tris, pH 7.4, 150 mM NaCl, 1 mM CaCl2, 1% Triton X-100, and cell debris was removed by centrifugation) was crudely purified using an anti-Flag antibody column (SIGMA, anti-Flag M2-agarose) (washed with TBS, then eluted with 0.1M Glysine-HCl, pH 3.5), and used for the measurement of HDAC activity. The reaction substrate used was a [^3H]-labeled acetylated histone prepared by cultivating Jurkat cells (2×10^8 cells) in 40 mL of an RPMI (SIGMA) medium containing 300 MBq [^3H] sodium acetate (NENTM Life Science Products, Inc.) for 2 hours, disrupting the cells in Lysis buffer, pH 6.5 (10 mM Tris-HCl, 50 mM Sodium Hydrogen sulfate, 1% Triton X-100, 10 mM MgCl2-6H2O, 8.6% Sucrose), washing the cells with Wash buffer (10 mM Tris-HCl, 13 mM EDTA), and then adding 0.4N H2SO4.

B1: HDAC4 dominant negative variant (H863L): HDAC4 variant with H863L mutation, amino acid sequence SEQ ID NO:6, expressed from plasmid (protein, listed as Homo sapiens)
chain: MSSQSHPDGLSGRDQPVELLNPARVNHMPSTVDVATALPLQVAPSAVPMDLRLDHQFSLPVAEPALREQQLQQELLALKQKQQIQRQILIAEFQRQHEQLSRQHEAQLHEHIKQQQEMLAMKHQQELLEHQRKLERHRQEQELEKQHREQKLQQLKNKEKGKESAVASTEVKMKLQEFVLNKKKALAHRNLNHCISSDPRYWYGKTQHSSLDQSSPPQSGVSTSYNHPVLGMYDAKDDFPLRKTASEPNLKLRSRLKQKVAERRSSPLLRRKDGPVVTALKKRPLDVTDSACSSAPGSGPSSPNNSSGSVSAENGIAPAVPSIPAETSLAHRLVAREGSAAPLPLYTSPSLPNITLGLPATGPSAGTAGQQDTERLTLPALQQRLSLFPGTHLTPYLSTSPLERDGGAAHSPLLQHMVLLEQPPAQAPLVTGLGALPLHAQSLVGADRVSPSIHKLRQHRPLGRTQSAPLPQNAQALQHLVIQQQHQQFLEKHKQQFQQQQLQMNKIIPKPSEPARQPESHPEETEEELREHQALLDEPYLDRLPGQKEAHAQAGVQVKQEPIESDEEEAEPPREVEPGQRQPSEQELLFRQQALLLEQQRIHQLRNYQASMEAAGIPVSFGGHRPLSRAQSSPASATFPVSVQEPPTKPRFTTGLVYDTLMLKHQCTCGSSSSHPEHAGRIQSIWSRLQETGLRGKCECIRGRKATLEELQTVHSEAHTLLYGTNPLNRQKLDSKKLLGSLASVFVRLPCGGVGVDSDTIWNEVHSAGAARLAVGCVVELVFKVATGELKNGFAVVRPPGHHAEESTPMGFCYFNSVAVAAKLLQQRLSVSKILIVDWDVHHGNGTQQAFYSDPSVLYMSLLRYDDGNFFPGSGAPDEVGTGPGVGFNVNMAFTGGLDPPMGDAEYLAAFRTVVMPIASEFAPDVVLVSSGFDAVEGHPTPLGGYNLSARCFGYLTKQLMGLAGGRIVLALEGGHDLTAICDASEACVSALLGNELDPLPEKVLQQRPNANAVRSMEKVMEIHSKYWRCLQRTTSTAGRSLIEAQTCENEEAETVTAMASLSVGVKPAEKRPDEEPMEEEPPL
modifications: Dominant negative mutant (H863L) of human histone deacetylase-4 (HDAC4) gene
GATA-1 transcriptional activity (luciferase) [1]: GATA-1 transcription suppression was not observed
interaction with N-CoR(RD3), GAL4 transcription activation (luciferase) [2]: did not interact with N-CoR(RD3)
HDAC activity with histone as a substrate [3]: decreased HDAC activity compared to wild-type HDAC4
